Source: US20230183753A1, “Methods of in Vitro Cell Delivery” (Intellia Therapeutics, Inc., priority 2020, published 2023)
Oligonucleotides are written 5' to 3', each unit as a sugar letter and its base; * is a phosphorothioate linkage, no mark a phosphodiester; rarer units and linkages stand in square brackets, end groups in braces. Plain capitals give the bases only. m = 2'-O-methyl; r = 2'-OH (RNA)

Tests used:
B2M, CD3, MHC II = test: Flow cytometry of antigen negative T cells (B2M, CD3, MHC II) after BC22n or Cas9 editing, Example 16A; assay type: cell-based, human
Source text: Cells were subsequently washed, processed on a Cytoflex instrument (Beckman Coulter) and analyzed using the FlowJo software package. T cells were gated based on size, shape, viability, and antigen expression.

[1] = test system: B2M, TRAC, TRBC1/2, CIITA; test: NGS editing profile of T cells with BC22n or Cas9 mRNA, single or four guides, LNP titration, Example 16A; assay type: cell-based, human; details: LNP;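 further: activated T cells exposed to LNPs 72 h after activation, kept at 37 °C, harvested on day 10 post activation, editing measured by NGS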
Procedure: Cells were expanded in T cell basal media for 72 hours prior to LNP transfection.
LNPs were mixed to fixed total mRNA weight ratios of 6:3:2 for editor mRNA, guide RNA, and UGI mRNA respectively as described in Table 12. […] LNP mixtures were incubated for 5 minutes at 37° C. in T cell basal media substituting 6% cynomolgus monkey serum (Bioreclamation IVT, Cat. CYN220760) for fetal bovine serum.
T cells were incubated at 37° C. with 5% CO2 for the duration of the experiment.
In total, T cells were exposed to 6 different LNPs simultaneously (editor mRNA, UGI mRNA, 4 guides).

[2] = multiple guide delivery (four guides simultaneously), locus of the guide assayed, editor BC22n, total RNA 8.6 ng
[3] = multiple guide delivery (four guides simultaneously), locus of the guide assayed, editor BC22n, total RNA 17.2 ng
[4] = multiple guide delivery (four guides simultaneously), locus of the guide assayed, editor BC22n, total RNA 34.4 ng
[5] = multiple guide delivery (four guides simultaneously), locus of the guide assayed, editor BC22n, total RNA 68.8 ng
[6] = multiple guide delivery (four guides simultaneously), locus of the guide assayed, editor BC22n, total RNA 137.5 ng
[7] = multiple guide delivery (four guides simultaneously), locus of the guide assayed, editor BC22n, total RNA 275.0 ng
[8] = multiple guide delivery (four guides simultaneously), locus of the guide assayed, editor BC22n, total RNA 550.0 ng
[9] = multiple guide delivery (four guides simultaneously), locus of the guide assayed, editor Cas9, total RNA 8.6 ng
[10] = multiple guide delivery (four guides simultaneously), locus of the guide assayed, editor Cas9, total RNA 17.2 ng
[11] = multiple guide delivery (four guides simultaneously), locus of the guide assayed, editor Cas9, total RNA 34.4 ng
[12] = multiple guide delivery (four guides simultaneously), locus of the guide assayed, editor Cas9, total RNA 68.8 ng
[13] = multiple guide delivery (four guides simultaneously), locus of the guide assayed, editor Cas9, total RNA 137.5 ng
[14] = multiple guide delivery (four guides simultaneously), locus of the guide assayed, editor Cas9, total RNA 275.0 ng
[15] = multiple guide delivery (four guides simultaneously), locus of the guide assayed, editor Cas9, total RNA 550.0 ng
[16] = single guide delivery, editor BC22n, total RNA 8.6 ng
[17] = single guide delivery, editor BC22n, total RNA 17.2 ng
[18] = single guide delivery, editor BC22n, total RNA 34.4 ng
[19] = single guide delivery, editor BC22n, total RNA 68.8 ng
[20] = single guide delivery, editor BC22n, total RNA 137.5 ng
[21] = single guide delivery, editor BC22n, total RNA 275.0 ng
[22] = single guide delivery, editor BC22n, total RNA 550.0 ng
[23] = single guide delivery, editor Cas9, total RNA 8.6 ng
[24] = single guide delivery, editor Cas9, total RNA 17.2 ng
[25] = single guide delivery, editor Cas9, total RNA 34.4 ng
[26] = single guide delivery, editor Cas9, total RNA 68.8 ng
[27] = single guide delivery, editor Cas9, total RNA 137.5 ng
[28] = single guide delivery, editor Cas9, total RNA 275.0 ng

B1: G016206: guide targeting TRBC1/2 (SEQ ID NO: 713) (nucleic acid)
guide: mC*mG*mC*rUrGrUrCrArArGrUrCrCrArGrUrUrCrUrArGrUrUrUrUrArGrAmGmCmUmAmGmAmAmAmUmAmGmCrArArGrUrUrArArArArUrArArGrGrCrUrArGrUrCrCrGrUrUrArUrCrAmAmCmUmUmGmAmAmAmAmAmGmUmGmGmCmAmCmCmGmAmGmUmCmGmGmUmGmCmU*mU*mU*mU
percent cells negative for antigen, CD3 neg, Mean % (B2M, CD3, MHC II; editor BC22n, total RNA 8.6 ng): 32.6%
percent cells negative for antigen, CD3 neg, Mean % (B2M, CD3, MHC II; editor BC22n, total RNA 17.2 ng): 53.4%
percent cells negative for antigen, CD3 neg, Mean % (B2M, CD3, MHC II; editor BC22n, total RNA 34.4 ng): 71.9%
percent cells negative for antigen, CD3 neg, Mean % (B2M, CD3, MHC II; editor BC22n, total RNA 68.8 ng): 82.9%
percent cells negative for antigen, CD3 neg, Mean % (B2M, CD3, MHC II; editor BC22n, total RNA 137.5 ng): 90.4%
percent cells negative for antigen, CD3 neg, Mean % (B2M, CD3, MHC II; editor BC22n, total RNA 275.0 ng): 96.0%
percent cells negative for antigen, CD3 neg, Mean % (B2M, CD3, MHC II; editor BC22n, total RNA 550.0 ng): 97.9%
percent cells negative for antigen, CD3 neg, Mean % (B2M, CD3, MHC II; editor Cas9, total RNA 8.6 ng): 7.9%
percent cells negative for antigen, CD3 neg, Mean % (B2M, CD3, MHC II; editor Cas9, total RNA 17.2 ng): 16.1%
percent cells negative for antigen, CD3 neg, Mean % (B2M, CD3, MHC II; editor Cas9, total RNA 34.4 ng): 27.0%
percent cells negative for antigen, CD3 neg, Mean % (B2M, CD3, MHC II; editor Cas9, total RNA 68.8 ng): 40.6%
percent cells negative for antigen, CD3 neg, Mean % (B2M, CD3, MHC II; editor Cas9, total RNA 137.5 ng): 59.4%
percent cells negative for antigen, CD3 neg, Mean % (B2M, CD3, MHC II; editor Cas9, total RNA 275.0 ng): 77.3%
percent cells negative for antigen, CD3 neg, Mean % (B2M, CD3, MHC II; editor Cas9, total RNA 550.0 ng): 86.6%
C-to-A/G % mean [1, 2]: 2.6%
C-to-T % mean [1, 2]: 11.6%
Indel % mean [1, 2]: 2.8%
C-to-A/G % mean [1, 3]: 3.6%
C-to-T % mean [1, 3]: 23.4%
Indel % mean [1, 3]: 2.6%
C-to-A/G % mean [1, 4]: 3.7%
C-to-T % mean [1, 4]: 38.5%
Indel % mean [1, 4]: 2.9%
C-to-A/G % mean [1, 5]: 2.3%
C-to-T % mean [1, 5]: 55.6%
Indel % mean [1, 5]: 2.4%
C-to-A/G % mean [1, 6]: 1.8%
C-to-T % mean [1, 6]: 72.4%
Indel % mean [1, 6]: 1.7%
C-to-A/G % mean [1, 7]: 1.9%
C-to-T % mean [1, 7]: 85.1%
Indel % mean [1, 7]: 1.7%
C-to-A/G % mean [1, 8]: 2.2%
C-to-T % mean [1, 8]: 89.8%
Indel % mean [1, 8]: 0.9%
C-to-A/G % mean [1, 9]: 0.7%
C-to-T % mean [1, 9]: 0.2%
Indel % mean [1, 9]: 2.3%
C-to-A/G % mean [1, 10]: 0.7%
C-to-T % mean [1, 10]: 0.3%
Indel % mean [1, 10]: 4.2%
C-to-A/G % mean [1, 11]: 0.5%
C-to-T % mean [1, 11]: 0.1%
Indel % mean [1, 11]: 6.6%
C-to-A/G % mean [1, 12]: 0.5%
C-to-T % mean [1, 12]: 0.4%
Indel % mean [1, 12]: 12.3%
C-to-A/G % mean [1, 13]: 0.5%
C-to-T % mean [1, 13]: 0.2%
Indel % mean [1, 13]: 17.8%
C-to-A/G % mean [1, 14]: 0.5%
C-to-T % mean [1, 14]: 0.1%
Indel % mean [1, 14]: 33.0%
C-to-A/G % mean [1, 15]: 0.3%
C-to-T % mean [1, 15]: 0.3%
Indel % mean [1, 15]: 43.3%
C-to-A/G % mean [1, 16]: 6.1%
C-to-T % mean [1, 16]: 23.7%
Indel % mean [1, 16]: 6.1%
C-to-A/G % mean [1, 17]: 6.8%
C-to-T % mean [1, 17]: 42.4%
Indel % mean [1, 17]: 6.8%
C-to-A/G % mean [1, 18]: 5.7%
C-to-T % mean [1, 18]: 60.1%
Indel % mean [1, 18]: 5.9%
C-to-A/G % mean [1, 19]: 4.3%
C-to-T % mean [1, 19]: 73.2%
Indel % mean [1, 19]: 4.7%
C-to-A/G % mean [1, 20]: 3.6%
C-to-T % mean [1, 20]: 81.7%
Indel % mean [1, 20]: 3.7%
C-to-A/G % mean [1, 21]: 2.3%
C-to-T % mean [1, 21]: 91.0%
Indel % mean [1, 21]: 2.8%
C-to-A/G % mean [1, 22]: 2.0%
C-to-T % mean [1, 22]: 93.6%
Indel % mean [1, 22]: 1.7%
C-to-A/G % mean [1, 23]: 0.5%
C-to-T % mean [1, 23]: 0.3%
Indel % mean [1, 23]: 8.1%
C-to-A/G % mean [1, 24]: 0.7%
C-to-T % mean [1, 24]: 0.3%
Indel % mean [1, 24]: 14.9%
C-to-A/G % mean [1, 25]: 0.8%
C-to-T % mean [1, 25]: 0.2%
Indel % mean [1, 25]: 24.1%
C-to-A/G % mean [1, 26]: 0.4%
C-to-T % mean [1, 26]: 0.2%
Indel % mean [1, 26]: 35.9%
C-to-A/G % mean [1, 27]: 0.5%
C-to-T % mean [1, 27]: 0.2%
Indel % mean [1, 27]: 48.6%
C-to-A/G % mean [1, 28]: 0.4%
C-to-T % mean [1, 28]: 0.1%
Indel % mean [1, 28]: 63.8%
